Source: publication PMC4601081, “A Single α Helix Drives Extensive Remodeling of the Proteasome Lid and Completion of Regulatory Particle Assembly” (Cell, 2015)
Values belong to the binder of their own block, whether it stands above or below them.

B2: Rpn5, subunit of LP2 and lid purified from yeast (natural protein, S. cerevisiae, UniProt Q12250 1-445, looked up)
chain: MSRDAPIKADKDYSQILKEEFPKIDSLAQNDCNSALDQLLVLEKKTRQASDLASSKEVLAKIVDLLASRNKWDDLNEQLTLLSKKHGQLKLSIQYMIQKVMEYLKSSKSLDLNTRISVIETIRVVTENKIFVEVERARVTKDLVEIKKEEGKIDEAADILCELQVETYGSMEMSEKIQFILEQMELSILKGDYSQATVLSRKILKKTFKNPKYESLKLEYYNLLVKISLHKREYLEVAQYLQEIYQTDAIKSDEAKWKPVLSHIVYFLVLSPYGNLQNDLIHKIQNDNNLKKLESQESLVKLFTTNELMRWPIVQKTYEPVLNEDDLAFGGEANKHHWEDLQKRVIEHNLRVISEYYSRITLLRLNELLDLTESQTETYISDLVNQGIIYAKVNRPAKIVNFEKPKNSSQLLNEWSHNVDELLEHIETIGHLITKEEIMHGLQAK
notes: Rpn5, S. cerevisiae proteasome lid subunit; source: purified from S. cerevisiae as part of LP2 or lid

Key:
Conditions in all cases: both partners purified
[1] = biological target: B2; assay: cross-linking; QCLMS of lid purified from yeast as a whole complex: BS3-d0 / BS3-d4 at 1:200 protein to cross-linker, Buffer HA, 30°C 1 h; monomeric cross-linked complex cut from SDS-PAGE, trypsin, LC-MS/MS
[2] = biological target: T1, Rpn3, subunit of LP2 and lid purified from yeast (S. cerevisiae, UniProt P40016 1-523); assay: negative-stain EM; single-particle 3D reconstruction of LP2 purified from yeast at 16 Å; ~50 nM complex in Buffer A, 2% uranyl acetate
T1 construct: Rpn3, S. cerevisiae proteasome lid subunit; source: purified from S. cerevisiae as part of LP2 or lid
T1 sequence (looked up): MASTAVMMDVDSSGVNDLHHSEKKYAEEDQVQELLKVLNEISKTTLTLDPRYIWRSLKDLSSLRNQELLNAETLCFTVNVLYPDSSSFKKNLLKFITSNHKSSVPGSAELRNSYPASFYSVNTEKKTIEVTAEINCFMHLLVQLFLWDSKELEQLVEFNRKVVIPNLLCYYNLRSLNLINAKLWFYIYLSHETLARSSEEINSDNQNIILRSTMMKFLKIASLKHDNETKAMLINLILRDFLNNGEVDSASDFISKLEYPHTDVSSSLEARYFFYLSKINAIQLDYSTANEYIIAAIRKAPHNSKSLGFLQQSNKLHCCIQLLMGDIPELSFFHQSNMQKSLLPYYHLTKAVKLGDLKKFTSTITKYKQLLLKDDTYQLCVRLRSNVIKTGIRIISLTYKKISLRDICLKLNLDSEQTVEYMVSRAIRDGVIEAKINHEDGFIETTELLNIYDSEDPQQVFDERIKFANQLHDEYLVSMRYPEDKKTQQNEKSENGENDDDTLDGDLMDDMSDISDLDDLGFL

[3] = biological target: T1, Rpn3, subunit of LP2 and lid purified …; assay: cross-linking; QCLMS of lid purified from yeast as a whole complex: BS3-d0 / BS3-d4 at 1:200 protein to cross-linker, Buffer HA, 30°C 1 h; monomeric cross-linked complex cut from SDS-PAGE, trypsin, LC-MS/MS
[4] = biological target: T1, Rpn3, subunit of LP2 and lid purified …; assay: cross-linking; QCLMS of LP2 purified from yeast as a whole complex: BS3-d0 / BS3-d4 at 1:200 protein to cross-linker, Buffer HA, 30°C 1 h; monomeric cross-linked complex cut from SDS-PAGE, trypsin, LC-MS/MS
[5] = biological target: T2, Rpn7, subunit of LP2 and lid purified from yeast (S. cerevisiae, UniProt Q06103 1-429); assay: as above
T2 construct: Rpn7, S. cerevisiae proteasome lid subunit; source: purified from S. cerevisiae as part of LP2 or lid
T2 sequence (looked up): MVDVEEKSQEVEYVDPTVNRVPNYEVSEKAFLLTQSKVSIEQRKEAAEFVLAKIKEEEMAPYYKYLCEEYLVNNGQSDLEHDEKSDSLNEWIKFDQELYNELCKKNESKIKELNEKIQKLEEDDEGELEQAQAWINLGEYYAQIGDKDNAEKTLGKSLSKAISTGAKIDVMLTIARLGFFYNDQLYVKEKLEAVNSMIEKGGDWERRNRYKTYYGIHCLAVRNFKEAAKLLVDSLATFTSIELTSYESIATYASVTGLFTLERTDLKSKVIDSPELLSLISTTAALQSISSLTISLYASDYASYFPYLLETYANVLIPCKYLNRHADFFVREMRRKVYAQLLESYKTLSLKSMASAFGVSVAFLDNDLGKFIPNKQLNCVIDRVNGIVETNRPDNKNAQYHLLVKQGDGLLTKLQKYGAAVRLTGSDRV

[6] = biological target: T3, Rpn8, subunit of LP2 and lid purified from yeast (S. cerevisiae, UniProt Q08723 1-338); assay: cross-linking; QCLMS of lid purified from yeast as a whole complex: BS3-d0 / BS3-d4 at 1:200 protein to cross-linker, Buffer HA, 30°C 1 h; monomeric cross-linked complex cut from SDS-PAGE, trypsin, LC-MS/MS
T3 construct: Rpn8, S. cerevisiae proteasome lid subunit; source: purified from S. cerevisiae as part of LP2 or lid
T3 sequence (looked up): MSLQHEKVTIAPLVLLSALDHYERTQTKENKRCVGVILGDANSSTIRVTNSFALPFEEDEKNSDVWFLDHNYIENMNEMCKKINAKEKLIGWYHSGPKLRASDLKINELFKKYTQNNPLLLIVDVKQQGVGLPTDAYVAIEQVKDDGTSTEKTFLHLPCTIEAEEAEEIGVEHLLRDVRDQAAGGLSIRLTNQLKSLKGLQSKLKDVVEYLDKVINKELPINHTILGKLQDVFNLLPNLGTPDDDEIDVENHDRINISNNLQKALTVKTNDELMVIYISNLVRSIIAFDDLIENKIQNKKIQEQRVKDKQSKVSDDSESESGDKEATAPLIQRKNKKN

[7] = biological target: T4, lid particle 2 (LP2), recombinant (S. cerevisiae, UniProt P40016 1-523; Q12250 1-445; Q12377 1-434; Q06103 1-429; Q08723 1-338; Q04062 …); assay: native gel or EMSA; RP assembly assay: recombinant components 1 uM each with 10 uM Rpn10 in 26S buffer (50 mM Tris-HCl pH 7.5, 5 mM MgCl2, 10% glycerol, 1 mM ATP), 30°C 20 min; native PAGE at 4°C; Coomassie or immunoblot (FLAG on Rpt1, HA on Rpn7, Rpn12)
T4 construct: Rpn3, S. cerevisiae proteasome lid subunit; Rpn5, S. cerevisiae proteasome lid subunit; Rpn6, S. cerevisiae proteasome lid subunit; Rpn7, S. cerevisiae proteasome lid subunit; Rpn8, S. cerevisiae proteasome lid subunit; Rpn9, S. cerevisiae proteasome lid subunit; Rpn11, S. cerevisiae proteasome lid subunit; Sem1, S. cerevisiae proteasome lid subunit; legends speak of 'untagged LP2'; operons as in …
T4 sequence (P43588 whole entry, one chain of several): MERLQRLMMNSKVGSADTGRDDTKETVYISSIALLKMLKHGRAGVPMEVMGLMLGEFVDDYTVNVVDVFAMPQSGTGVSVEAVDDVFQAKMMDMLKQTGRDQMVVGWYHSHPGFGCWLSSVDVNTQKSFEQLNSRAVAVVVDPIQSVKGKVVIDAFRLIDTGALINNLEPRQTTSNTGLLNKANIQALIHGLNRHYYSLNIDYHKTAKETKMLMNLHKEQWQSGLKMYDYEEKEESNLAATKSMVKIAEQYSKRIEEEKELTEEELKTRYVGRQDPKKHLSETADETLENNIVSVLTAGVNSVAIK

binding result [1]: binds
binding result [2]: binds
B1: Rpn6, subunit of LP2 and lid purified from yeast (natural protein, S. cerevisiae, UniProt Q12377 1-434, looked up)
chain: MSLPGSKLEEARRLVNEKQYNEAEQVYLSLLDKDSSQSSAAAGASVDDKRRNEQETSILELGQLYVTMGAKDKLREFIPHSTEYMMQFAKSKTVKVLKTLIEKFEQVPDSLDDQIFVCEKSIEFAKREKRVFLKHSLSIKLATLHYQKKQYKDSLALINDLLREFKKLDDKPSLVDVHLLESKVYHKLRNLAKSKASLTAARTAANSIYCPTQTVAELDLMSGILHCEDKDYKTAFSYFFESFESYHNLTTHNSYEKACQVLKYMLLSKIMLNLIDDVKNILNAKYTKETYQSRGIDAMKAVAEAYNNRSLLDFNTALKQYEKELMGDELTRSHFNALYDTLLESNLCKIIEPFECVEISHISKIIGLDTQQVEGKLSQMILDKIFYGVLDQGNGWLYVYETPNQDATYDSALELVGQLNKVVDQLFEKASVLY
notes: Rpn6, S. cerevisiae proteasome lid subunit; Also stands as the whole protein for the region row on the E. coli truncations; source: purified from S. cerevisiae as part of LP2 or lid

binding result [7]: binds
B4: Rpn12-E271K, recombinant (natural protein, S. cerevisiae, UniProt P32496 1-274, looked up)
chain: MPSLAELTKSLSIAFENGDYAACEKLLPPIKIELIKNNLLIPDLSIQNDIYLNDLMITKRILEVGALASIQTFNFDSFENYFNQLKPYYFSNNHKLSESDKKSKLISLYLLNLLSQNNTTKFHSELQYLDKHIKNLEDDSLLSYPIKLDRWLMEGSYQKAWDLLQSGSQNISEFDSFTDILKSAIRDEIAKNTELSYDFLPLSNIKALLFFNNEKETEKFALERNWPIVNSKVYFNNQSKEKADYEDEMMHEEDQKTNIIEKAMDYAISIKNIV
notes: Rpn12, S. cerevisiae proteasome lid subunit, Glu271 to lysine

The remaining lines, values behind:

Binder: B2
binding result [3]: binds

B3: Sem1, subunit of LP2 and lid purified from yeast (natural protein, S. cerevisiae, UniProt O94742 1-89, looked up)
chain: MSTDVAAAQAQSKIDLTKKKNEEINKKSLEEDDEFEDFPIDTWANGETIKSNAVTQTNIWEENWDDVEVDDDFTNELKAELDRYKRENQ
notes: Sem1, S. cerevisiae proteasome lid subunit; source: purified from S. cerevisiae as part of LP2 or lid
binding result [4]: binds
binding result [5]: binds
binding result [6]: binds
